Measurements published in patent publication US20250295734A1, “ANTICOAGULANT PROTEINS AND THEIR USE FOR TREATING DISEASES ASSOCIATED WITH THE ACTIVATION OF NEUTROPHILS” (BIOXODES, priority 2018, published 2025).

Key:
Factor XIIa = biological target: T1, Factor XIIa (Homo sapiens, UniProt P00748); details: cited from earlier work
T1 construct: The resulting α-FXIIa has a heavy chain of 50 kDa, connected to a light chain of 28 kDa
T1 sequence (P00748 20-372 limits assumed): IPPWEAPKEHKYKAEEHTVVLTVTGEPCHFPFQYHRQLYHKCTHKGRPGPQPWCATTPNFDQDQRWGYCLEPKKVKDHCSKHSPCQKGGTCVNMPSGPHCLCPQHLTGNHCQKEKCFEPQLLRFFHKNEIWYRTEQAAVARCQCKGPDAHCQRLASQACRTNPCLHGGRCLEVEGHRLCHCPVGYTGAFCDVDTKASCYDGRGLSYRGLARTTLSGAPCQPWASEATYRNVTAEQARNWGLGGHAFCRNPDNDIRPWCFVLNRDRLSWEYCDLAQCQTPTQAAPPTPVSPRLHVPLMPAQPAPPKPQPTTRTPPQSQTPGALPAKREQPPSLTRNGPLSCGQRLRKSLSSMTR
T1 sequence (P00748 373-615 limits assumed): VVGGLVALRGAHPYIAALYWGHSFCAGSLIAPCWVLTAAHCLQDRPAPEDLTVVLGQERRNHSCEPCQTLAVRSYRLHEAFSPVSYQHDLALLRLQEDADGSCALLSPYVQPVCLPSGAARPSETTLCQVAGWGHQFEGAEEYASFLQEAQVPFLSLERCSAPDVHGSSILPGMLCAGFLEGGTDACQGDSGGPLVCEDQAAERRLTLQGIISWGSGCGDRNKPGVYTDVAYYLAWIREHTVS

[1] = test system: platelet accumulation and fibrin generation on the injured vessel walls; assay: Laser-induced vessel wall injury of cremaster muscle arterioles: platelet and fibrin detection; format: in vivo, mice (C57BL/6JRj); details: iv bolus 20.5 mg/kg + infusion 3.7 mg/kg/h
Experimental: Ir-CPI was administered intravenously as a bolus (20.5 mg/kg) immediately followed by a continuous infusion at a rate of 3.7 mg/kg/h (see Table 1 below). Due to fast distribution and elimination of Ir-CPI in the mice (t1/2α=14 min and t1/2β=236 min), the combination of the bolus and the infusion was chosen in order to maintain a constant Ir-CPI concentration into the blood.
Intravital video-microscopy of the cremaster muscle microcirculation was done as previously described (Falati et al., 2002).
Mice were anesthetized with intraperitoneal injection of ketamine (125 mg/kg), xylazine (12.5 mg/kg) and atropine (0.25 mg/kg) and were maintained at 37° C. on a thermo-controlled rodent blanket.
A tracheal tube was inserted into the trachea to facilitate breathing. A canula was inserted into a jugular vein for administration of pentobarbital. Pentobarbital (12 mg/kg) was administered in the jugular vein every 20-30 minutes to maintain the mice under anesthesia throughout the handling. The same jugular vein canula was used for the administration of the antibodies and the enzymatic substrate coupled to a fluorochrome that is necessary to follow the development of the thrombus (detection of fibrin and/or platelets and/or neutrophils and/or neutrophil elastase activity). A canula was also inserted in the second contralateral jugular vein for administration of the vehicle or the test item (Ir-CPI or NaCl).
After the scrotum was incised, the testicle and surrounding cremaster muscle were exteriorized onto an intravital microscopy tray. The cremaster muscle was continuously perfused with thermo-controlled (37° C.) and aerated (95% N2, 5% CO2) bicarbonate-buffered saline solution throughout the experiment.
Microvessel data were obtained using an Olympus AX61WI microscope with a 60×0.9-numerical aperture water immersion objective. The digital wide-field fluorescence microscopy system has previously been described (Falati et al., 2002). Digital images were captured with a Cooke Sensicam CCD camera in 640×480 format.
Vessel wall injury was induced with a Micropoint Laser System (Photonics Instruments) focused through the microscope objective, parfocal with the focal plane and aimed at the vessel wall, as previously described (Dubois et al., 2006). Typically, 1 or 2 pulses were required to induce vessel wall injury.
Multiple thrombi were studied in a single mouse, with new thrombi formed upstream of earlier thrombi to avoid any contribution from thrombi generated earlier in the animal under study. Laser-beam injuries were done at various time after the start of test-item administration (+5 min up to about 150 min after bolus administration of Ir-CPI or NaCl (control)).
Image analysis was performed using Slidebook 4.1 (Intelligent Imaging Innovations). Fluorescence data were captured digitally at up to 50 frames per second and analyzed as previously described (Falati et al., 2002). The kinetics of thrombus formation were analyzed by determining median fluorescence values over time in a minimum number of 20 thrombi.
In vivo detection of fibrin was performed using an Alexa Fluor 488-conjugated anti-fibrin antibody from Darbousset et al., 2014, administered intravenously at 0.5 μg/g of mouse. […]
Platelet accumulation and fibrin generation on the injured vessel walls were monitored using the following fluorescently labeled antibodies: DyLight649-labeled anti-GPIb antibody and Alexa Fluor 488-conjugated anti-fibrin antibody, respectively.

FXIa = FXIa (Homo sapiens, UniProt P03951); details: cited from earlier work
Sequence of FXIa (P03951 19-387 limits assumed): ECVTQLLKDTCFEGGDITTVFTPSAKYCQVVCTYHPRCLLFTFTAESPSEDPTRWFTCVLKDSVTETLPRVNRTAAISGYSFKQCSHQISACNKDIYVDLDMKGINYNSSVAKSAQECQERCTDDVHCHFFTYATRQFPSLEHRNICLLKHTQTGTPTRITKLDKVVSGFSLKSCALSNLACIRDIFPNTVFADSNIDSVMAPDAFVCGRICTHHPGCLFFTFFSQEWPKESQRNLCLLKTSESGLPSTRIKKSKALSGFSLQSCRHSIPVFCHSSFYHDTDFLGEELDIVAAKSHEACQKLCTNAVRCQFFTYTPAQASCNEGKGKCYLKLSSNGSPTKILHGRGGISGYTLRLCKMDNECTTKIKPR
Sequence of FXIa (P03951 388-625 limits assumed): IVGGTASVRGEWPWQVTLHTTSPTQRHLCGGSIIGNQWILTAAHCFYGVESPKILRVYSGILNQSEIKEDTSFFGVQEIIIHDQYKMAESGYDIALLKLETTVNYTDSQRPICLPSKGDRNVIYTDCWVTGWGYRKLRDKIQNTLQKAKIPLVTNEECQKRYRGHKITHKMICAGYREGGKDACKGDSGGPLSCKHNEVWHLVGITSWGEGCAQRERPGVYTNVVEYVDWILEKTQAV

Factor Xa = Factor Xa (Homo sapiens, UniProt P00742); details: cited from earlier work
Sequence of Factor Xa (P00742 41-179 limits assumed): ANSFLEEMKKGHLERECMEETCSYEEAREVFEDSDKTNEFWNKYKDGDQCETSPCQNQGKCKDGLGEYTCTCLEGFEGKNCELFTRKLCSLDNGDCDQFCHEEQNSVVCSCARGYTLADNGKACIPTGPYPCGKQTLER
Sequence of Factor Xa (P00742 235-488 limits assumed): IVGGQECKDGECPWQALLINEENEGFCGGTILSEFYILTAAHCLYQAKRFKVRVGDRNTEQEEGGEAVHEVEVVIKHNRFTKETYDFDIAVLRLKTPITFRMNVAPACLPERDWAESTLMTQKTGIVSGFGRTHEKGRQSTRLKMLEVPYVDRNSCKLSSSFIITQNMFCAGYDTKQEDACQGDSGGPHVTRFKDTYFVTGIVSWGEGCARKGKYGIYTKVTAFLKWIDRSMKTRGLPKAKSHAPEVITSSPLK

B1: Ir-CPI: Ixodes ricinus salivary gland polypeptide, contact phase inhibitor, MW=7660 Da; sequence SEQ ID NO: 1 or SEQ ID NO: 2 (protein)
chain: ANHKGRGRPAKCKLPPDDGPCRARIPSYYFDRKTKTCKEFMYGGCEGNENNFENITTCQEECRAKKV
For B1, the “activation of Factor XI by Factor XIIa” value (Factor XIIa) is given as “inhibit activation”, the “activation of PK by Factor XIIa” value (Factor XIIa) is given as “inhibit activation” and the “maximal median of integrated platelet fluorescence” value ([1]; at T214 sec after laser injury) is given as 121 783 AU. The “median of integrated platelet fluorescence” value ([1]; at T228 sec (end of measurement)) was 101 887 AU, the “median of integrated fibrin fluorescence intensity compared to control mice” value ([1]; every time point 0, 15, 30, 45, 75 and 90 min) was “lower” and the “fibrin generation compared to control mice” value ([1]; first 3.8 min after laser injury) was “less important”. The “platelet accumulation compared to control mice” value ([1]; short time period (228 sec)) was “drastically decreased”, the “binding to FXIa” value (FXIa) was “binds” and the “activity on Factor Xa” value (Factor Xa) was “totally inactive”.
